Among the data in article PMC2289477 are stoichiometry N (actin/profilin molar ratio) values, retold here.

For this test, the target named is profilin from bovine brain (profilin of the high-affinity profilactin complex) (bovine (endogenous in bovine brain)) (UniProt P02584).
Chain of UniProt P02584 (P02584 whole entry, one chain of several): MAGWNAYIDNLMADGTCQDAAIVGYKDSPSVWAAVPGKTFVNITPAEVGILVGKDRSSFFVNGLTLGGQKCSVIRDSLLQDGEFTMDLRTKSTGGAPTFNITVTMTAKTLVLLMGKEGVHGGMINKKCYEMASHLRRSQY

For the substance “actin from bovine brain (actin of the high-affinity profilactin complex) (from UniProt P60712 1-375) (natural protein)”, the stoichiometry N (actin/profilin molar ratio) is 1.
